Laboratory results reported in patent publication US20210292393A1 (published 2021).
Numbering of substitutions follows the chain as printed.

Key:
[1] = molecular target: SARS-CoV-2 full length spike protein, V483A mutant, expressed on CHO cells (SARS-CoV-2, UniProt P0DTC2 14-1273)
[2] = molecular target: SARS-CoV-2 full length spike protein, V367F mutant, expressed on CHO cells (SARS-CoV-2, UniProt P0DTC2 14-1273)
[3] = molecular target: SARS-CoV-2 full length spike protein, D614G mutant, expressed on CHO cells (SARS-CoV-2, UniProt P0DTC2 14-1273)
[4] = molecular target: T1, SARS-CoV-2 full length spike protein, V483A mutant, expressed on the surface of CHO cells (SARS-CoV-2, UniProt P0DTC2 14-1273); assay: flow cytometry, CHO cells expressing full-length spike V483A
T1 construct: also called SARS-CoV-2 V483A mutant

[5] = molecular target: SARS-CoV-2 full length spike protein, V483A mutant (SARS-CoV-2, UniProt P0DTC2 14-1273)

B1: antibody 385 (antibody, V domains shown)
VH: QVQLVESGGGVVQPGRSLRLSCAASGFTFSSYAIHWVRQAPGKGLEWVAVISYDGSNKYYADSVKGRFTISRDNSKNTLYLQMNSLRAEDTAVYYCARPRSGSYWGAFDIWGQGTMVTVSS
VL: QSVLTQPPSVSGAPGQRVTISCTGSSSNIGARYDVHWYQQLPGTAPKLLIYGNSNRPSGVPDRFSGSKSGTSASLAITGLQAEDEADYYCQSYDSSLRGVFGGGTKLTVL
**Q.** How did the “median fluorescence fold over isotype control” value (“median fluorescence fold” for short) [1] turn out when B1 was run?
**A.** Its value is 8.16 fold over isotype.

B2: antibody 482 (antibody, V domains shown)
VH: EVQLVESGGGLVQPGGSLRLSCAASGFTFSSYWMTWVRQAPGKGLEWVANIKQDGSEKYYVDSVKGRFTISRDNAKNSLYLQMNSLRAEDTAVYYCARGVGSWYLGFDYWGQGTLVTVSS
VL: NFMLTQPHSVSESPGKTVTISCTGSSGSIASNYVQWYQQRPGSAPTTVIYEDNQRPSGVPDRFSGSIDSSSNSASLTISGLKTEDEADYYCQSYDGSSYVFGTGTKVTVL
**Q.** Which results are given for B2?
**A.** median fluorescence intensity, fold over isotype control [2]: 2.89 fold over isotype; median fluorescence intensity, fold over isotype control [3]: 14.3 fold over isotype

B3: antibody 351 (antibody, V domains shown)
VH: HVQLVESGGGVVQPGRSLRLSCAASGFISRNYGMEWVRQAPGQGLEWVAGIWYDGSKKYYADSVKGRFTISRDTSKNTLFLQMDSLRAEDTAVFYCATATKTFCGGDCPPGGMDVWGQGTTVTVST
VL: SYVLTQPPSVSVAPGKTAWITCVGNNIESESVHWYQQRPGQAPVLVIYYDSDRPSGIPERFFGSNSGNTATLTISRVEAGDEADYYCQVWDSNSDLMVFGGGTKLTVL
**Q.** Does B3 bind [4]?
**A.** Result: no binding

B4: antibody 508 (antibody, V domains shown)
VH: EVQLVQSGAEVKKPGATVKISCKVSGYTFTDYYMHWVQQAPGKGLEWMGLVDPEDGETIYAEKFQGRVTITADTSTDTAYMELSSLRSEDTAVYYCAVENMITFGGVIVKRGAFDIWGQGTMVTVSS
VL: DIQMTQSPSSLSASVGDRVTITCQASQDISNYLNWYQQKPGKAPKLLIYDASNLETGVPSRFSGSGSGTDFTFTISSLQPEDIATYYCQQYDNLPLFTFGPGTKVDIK
**Q.** For B4, which “median fluorescence intensity, fold over isotype control” value (shortened to “median fluorescence intensity, fold”) [2] is on record?
**A.** The value was 2.71 fold over isotype.

**Q.** What about the “median fluorescence intensity, fold” value [3] of the same binder?
**A.** Its value is 3.99 fold over isotype.

B5: antibody 333 (antibody, V domains shown)
VH: QVHLVESGGGVVLPGRSLRLSCSASQFIFSNYDMHWVRQSPGMGLEWVAGISSDGSDKYYIDSVRGRFTISRDNAKNTLFLQMNSLTTEDTAVYSCAKGGGKFGQYWGRGTLVTVSS
VL: AIQMTQSPSSLSASVGDRVTITCRASQVIRNDLAWFQQKPGEAPNLLVYSASNLQSGVPSRFSGSGSGTDFTLTISSLQPEDFATYYCLQDYSYPYTFGQGTKLDMK
**Q.** Does B5 bind [4]?
**A.** Result: no binding

B6: antibody 367 (antibody, V domains shown)
VH: QVQLVQSGAEVKKPGASVKVSCKASGYTFTGYYIHWVRQAPGQGLEWMGWINPNSGGTIYAQKFQGRVTMTRDTSISTAYMELSRLTSDDTAVYSCAREPYYDILTGYYAPRRYFDYWGQGTLVTVSS
VL: QSALTQPASVSGSPGQSITISCTGTSSDVGSYNYVSWYLQHPGKAPKLMIYDVSNRPSGVSNRFSGSKSGNTASLTISGLQAEDEADFYCSSYTSRSTYVFGTGTKVTVL
**Q.** With B6 as the binder, how does the “median fluorescence fold” value [1] read?
**A.** The value was 16.3 fold over isotype.

B7: antibody 454 (antibody, V domains shown)
VH: B6 VH with V18L, T28I, I34M, N52S, I59K, T87R, T91S, S95Y, A110T, F115L
VL: B6 VL with S31D, L39Q, A45V, N55H, S61T, Q81R, F88Y, R96S
**Q.** How did the “median fluorescence fold” value [5] turn out when B7 was run?
**A.** Its value is 19.7 fold over isotype.

B8: antibody 501 (antibody, V domains shown)
VH: QVQLVQSGAEVKKPGASVKVSCKASGYTFTSYYVHWVRQAPGQSLEWMGVISPSTGSTTYAQNFQGRVTMTRDTSTTTVYMELSSLRSEDTAVYYCARDDYYDSTRYFDLWGRGTLVTVSS
VL: B6 VL with T19S, I20F, V29I, S31A, L39Q, K44R, S54G, F88Y, R96S, Y99Q
**Q.** How did the “median fluorescence intensity, fold” value [2] turn out when B8 was run?
**A.** The value was 30 fold over isotype.

**Q.** And the “median fluorescence intensity, fold” value [3]?
**A.** Its value is 46.1 fold over isotype.

B9: antibody 506 (antibody, V domains shown)
VH: QITLKESGPTLVKPTQTLTLTCTFSGFSLSTSGVGVGWIRQPPGKALEWLALIYWDDDKRYSPSLKSRLTITKDTSKNQVVLTMTNMDPVDTATYYCAHHSLSSIFDYWGQGTLVTVSS
VL: QSALTQPASVSGSPGQSITISCTGTSSDVGDYNYVSWYQQHPGKAPKLMIYEVSNRPSGVSNRFSGSKSGNTASLTISGLQAEDEADYYCSSYTSSSTVFGGGTKLTVLG
**Q.** With B9 as the binder, how does the “median fluorescence intensity, fold” value [2] read?
**A.** The value was 42.3 fold over isotype.

**Q.** And the “median fluorescence intensity, fold” value [3]?
**A.** The value was 69.5 fold over isotype.

B10: antibody 332 (antibody, V domains shown)
VH: QVTLRESGPALVKPTQTLTLTCTFSGFSLSTSGMCVSWIRQPPGKALEWLALIDWDDDKYYSTSLKTRLTISKDTSKNQVVLTMTNMDPVDTATYYCARIHDDILTGYHYVDYWGQGTLVTVSS
VL: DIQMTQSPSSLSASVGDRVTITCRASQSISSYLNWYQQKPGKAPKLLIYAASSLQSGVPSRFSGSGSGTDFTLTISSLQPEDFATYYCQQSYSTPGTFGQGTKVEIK
**Q.** Does B10 bind [4]?
**A.** Result: no binding

B11: antibody 409 (antibody, V domains shown)
VH: QVTLRESGPALVKPTQTLTLTCTFSGFSLSTSGMCVSWIRQPPGKALEWLALIDWDDDKYYSTSLKTRLTISKDTSKNQVVLTMTNMDPVDTATYYCARTTYYYVSGRRAEFDPWGQGTLVTVSS
VL: NFMLTQPHSVSESPGKTVTISCTGSSGSIASNYVQWYQQRPGSAPTTVIYEDNQRPSGVPDRFSGSIDSSSNSASLTISGLKTEDEADYYCQSYDSSNQGVFGGGTKLTVL
**Q.** For B11, which “median fluorescence fold” value [1] is on record?
**A.** Its value is 9.21 fold over isotype.

B12: antibody 378 (antibody, V domains shown)
VH: QVQLVQSGAEVKKPGASVKVSCKASGYTFTSYYMHWVRQAPGQGLEWMGIINPSGGSTSYAQKFQGRVTMTRDTSTSTVYMELSSLRSEDTAVYYCARDSGGMDDFWSGYYSPGGDYWGQGTLVTVSS
VL: QSALTQPASVSGSPGQSITISCTGTSSDVGSYNLVSWYQQHPGKAPKLMIYEGSKRPSGVSNRFSGSKSGNTASLTISGLQAEDEADYYCCSYAGSSTWVFGGGTKLTVL
**Q.** Which “median fluorescence fold” value [1] does the source give for B12 here?
**A.** Its value is 14.3 fold over isotype.

B13: antibody 502 (antibody, V domains shown)
VH: QVQLVQSGAEVKKPGASVKVSCKASGYTFTSYYMHWVRQAPGQGLEWMGIINPSGGSTSYAQKFQGRVTMTRDTATSTVYMELSSLRSEDTAVYYCARGGGQISMIIVVMDDAFDIWGQGTMVTVSS
VL: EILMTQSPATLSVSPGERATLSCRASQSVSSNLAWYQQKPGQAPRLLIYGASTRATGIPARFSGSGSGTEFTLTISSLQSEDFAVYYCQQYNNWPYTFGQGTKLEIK
**Q.** B13 was tested. Which “median fluorescence intensity, fold” value [2] did it give?
**A.** The value was 51.8 fold over isotype.

**Q.** What about the “median fluorescence intensity, fold” value [3] of the same binder?
**A.** The value was 77.3 fold over isotype.

B14: antibody 465 (antibody, V domains shown)
VH: QITLKESGPTLVKPTQTLTLTCTFSGFSLSTSGVGVGWIRQPPGKALEWLALIYWDDDKHYSPSLKSRLTITKDTSKNQVVLTMTNMDPVDTATYYCAHMYYDILSGYYYGMDVWGQGTTVTVSS
VL: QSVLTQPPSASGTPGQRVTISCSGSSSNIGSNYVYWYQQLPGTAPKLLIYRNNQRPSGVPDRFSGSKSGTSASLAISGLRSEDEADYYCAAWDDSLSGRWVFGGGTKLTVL
**Q.** With B14 as the binder, how does the “median fluorescence intensity, fold” value [2] read?
**A.** The value was 37.3 fold over isotype.

**Q.** And the “median fluorescence intensity, fold” value [3]?
**A.** The value was 68.3 fold over isotype.

B15: antibody 467 (antibody, V domains shown)
VH: QVQLVQSGAEVKKPGASVKVSCKASGYTFISYGISWVRQAPGQGLEWMGWISAYNGNTNYAQKLQGRVTMTTDTSTSTAYMELRSLRSDDTAVYYCARGLWPGYYYGSGSYSAFHIWGQGTMVTVSS
VL: QSALTQPPSASGSPGQSVSISCTGTSSDVGGYNYVSWYQQHPGKAPKLMIYEVSKRPSGVPDRFSGSKSGNTASLTVSGLQAEDEADYYCSSYAGSNKVFGGGTKLTVL
**Q.** Which results are given for B15?
**A.** median fluorescence intensity, fold over isotype control [2]: 30.6 fold over isotype; median fluorescence intensity, fold over isotype control [3]: 7.54 fold over isotype

B16: antibody 372 (antibody, V domains shown)
VH: QVQLVESGGGVVQPGRSLRLSCAASGFTFSSYAMHWVRQAPGKGLEWVAVISYDGSNKYYADSVKGRFTISRDNSKNTLYLQMNSLRAEDTAVYYCARDLGTSALLWFGELFLNYGMDVWGQGTTVTVSS
VL: QSALTQPRSVSGSPGQSVTISCTGTSSDVGGYNYVSWYQQHPGKAPKLMIYDVSKRPSGVPDRFSGSKSGNTASLTISGLQAEDEADYYCCSYAGSPILVFGGGTKLTVL
**Q.** How did the “median fluorescence fold” value [1] turn out when B16 was run?
**A.** Its value is 18.1 fold over isotype.

B17: antibody 405 (antibody, V domains shown)
VH: not shown
VL: B16 VL with P97Y, I98N, L99V
**Q.** B17 was tested. Which “median fluorescence fold” value [1] did it give?
**A.** The value was 7.51 fold over isotype.

B18: antibody 395 (antibody, V domains shown)
VH: QVQLVQSGSELKKPGASVKLSCQASGYTFSNHAMNWVRQAPGQGLEWMGWINTNTGNPTYAQGFTGRFVFSLDTSVGTAYLHISSLKAEDTAFYYCARASARPGVATNLDFWGQGTLVVVSS
VL: DIQMTQSPSSLSASVGDRVTITCRTSQNIDNYLNWYQQKPGKAPNLLIYAASRLHSGVPSRFSGSGSGTDFTLIISSLQPEDLATYYCQQSYSNPLTFGPGTKVDIR
**Q.** Which “median fluorescence fold” value [1] does the source give for B18 here?
**A.** The value was 8.92 fold over isotype.

B19: antibody 343 (antibody, V domains shown)
VH: QVQLVESGGDVVQPGTSLRLSCAASGFTFNNYGFHWVRQAPGKGLEWVALISSDGASTHYADSVKGRFTISRDSSVNTLYLQMNSLSLEDTAVYYCATGHCGTTCYYFDYWGQGTLVSVSS
VL: DIQVTQSPSYLSASVGDRVTITCRASQTISTFLQWYQQKVGKAPKLLIYAASTLQSGVPSRFSGSGSGTDFSLTISSLQPEDFATYYCQQSYSAPLSFGGGTKVEIK
**Q.** Does B19 bind [4]?
**A.** Result: no binding

B20: antibody 456 (antibody, V domains shown)
VH: QVQLQQWGAGLLKPSETLSLTCAVYGGSFSGYYWSWIRQPPGKGLEWIGEINHSGSTNYNPSLKSRVTISVDTSKNQFSLKLSSVTAADTAVYYCARDGSGSYYLSYYFDYWGQGTLVTVSS
VL: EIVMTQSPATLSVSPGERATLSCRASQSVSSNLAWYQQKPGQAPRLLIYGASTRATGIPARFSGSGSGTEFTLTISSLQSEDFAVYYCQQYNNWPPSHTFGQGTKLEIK
**Q.** With B20 as the binder, how does the “median fluorescence fold” value [5] read?
**A.** Its value is 8.16 fold over isotype.
